B1: HPPDm-1-02: nucleotide sequence encoding Avena sativa HPPD with A107 deletion+F372A+F383W; vector DBN11780 (nucleic acid)
DNA: ATGCCACCTACTCCAGCTACAGCTACTGGTGCTGCTGCTGCTGCCGTTACTCCTGAGCACGCTGCCAGGTCATTCCCCAGGGTGGTTCGCGTGAACCCCAGATCTGATAGGTTCCCAGTTCTGAGCTTCCACCATGTTGAGCTGTGGTGCGCTGATGCTGCTTCTGCTGCTGGCAGGTTCTCTTTCGCTCTTGGTGCTCCACTCGCTGCTAGATCTGATCTGTCTACAGGAAATAGCGCTCATGCCTCACTCCTGCTTCGCTCAGGTGCTTTGGCCTTCCTCTTCACCGCTCCATATGCTCCCCCACCTCAGGAGGCTACTGCTGCTGCTACAGCCTCCATTCCAAGCTTCTCAGCTGATGCCGCTAGAACCTTCGCTGCTGCTCATGGACTTGCCGTGAGGTCTGTTGGTGTTCGCGTGGCTGATGCTGCTGAGGCTTTCAGAGTTTCCGTTGCCGGCGGAGCTAGGCCAGCTTTCGCTCCTGCTGATTTGGGACATGGTTTCGGCCTGGCTGAGGTTGAGCTTTACGGTGACGTGGTTCTCCGCTTCGTGTCTTACCCAGATGAGACTGACCTGCCTTTCCTTCCCGGCTTCGAGAGAGTTTCCTCTCCTGGTGCCGTGGATTACGGCCTGACAAGGTTCGACCACGTGGTTGGAAACGTTCCCGAGATGGCTCCAGTGATCGATTACATGAAGGGCTTCCTTGGATTCCATGAGTTCGCCGAGTTCACTGCTGAGGACGTGGGAACCACTGAGTCCGGTTTGAACTCTGTGGTTCTCGCCAACAATTCTGAGGCTGTTTTGCTCCCTCTGAATGAGCCTGTGCATGGAACCAAGAGGAGAAGCCAGATTCAAACTTACCTGGAGTACCACGGTGGCCCTGGAGTTCAGCATATCGCCCTTGCTTCTAATGATGTGTTGCGCACACTCAGAGAGATGCGCGCCAGAACCCCCATGGGAGGTTTCGAGTTCATGGCCCCACCACAGGCTAAGTACTACGAGGGCGTTAGAAGGATTGCTGGAGACGTGTTGAGCGAGGAGCAGATCAAGGAGTGCCAAGAGCTGGGTGTTCTTGTGGATAGGGATGACCAGGGCGTTCTGCTTCAAATTGCCACTAAGCCAGTGGGCGACCGCCCTACATTCTGGCTTGAGATGATTCAAAGAATCGGCTGCATGGAGAAGGATGAGGTTGGACAGGAGTACCAAAAGGGCGGATGCGGTGGCTTCGGAAAGGGTAACTTCAGCGAGTTGTTCAAGTCAATCGAGGACTACGAGAAGAGCCTCGAGGTGAAGCAGTCAGTGGTTGCCCAAAAGTCCTGA
modifications: HPPDm-1-02 Nucleotide Sequence
notes: vector DBN11780
B2: HPPDm-2-02: nucleotide sequence encoding Avena sativa HPPD with A111T+F372A+F383W; vector DBN11783 (nucleic acid)
DNA: ATGCCACCTACTCCAGCTACAGCTACTGGTGCTGCTGCTGCTGCCGTTACTCCTGAGCACGCTGCCAGGTCATTCCCCAGGGTGGTTCGCGTGAACCCCAGATCTGATAGGTTCCCAGTTCTGAGCTTCCACCATGTTGAGCTGTGGTGCGCTGATGCTGCTTCTGCTGCTGGCAGGTTCTCTTTCGCTCTTGGTGCTCCACTCGCTGCTAGATCTGATCTGTCTACAGGAAATAGCGCTCATGCCTCACTCCTGCTTCGCTCAGGTGCTTTGGCCTTCCTCTTCACCGCTCCATATGCTCCCCCACCTCAGGAGGCTGCTACTGCTGCTACTACAGCCTCCATTCCAAGCTTCTCAGCTGATGCCGCTAGAACCTTCGCTGCTGCTCATGGACTTGCCGTGAGGTCTGTTGGTGTTCGCGTGGCTGATGCTGCTGAGGCTTTCAGAGTTTCCGTTGCCGGCGGAGCTAGGCCAGCTTTCGCTCCTGCTGATTTGGGACATGGTTTCGGCCTGGCTGAGGTTGAGCTTTACGGTGACGTGGTTCTCCGCTTCGTGTCTTACCCAGATGAGACTGACCTGCCTTTCCTTCCCGGCTTCGAGAGAGTTTCCTCTCCTGGTGCCGTGGATTACGGCCTGACAAGGTTCGACCACGTGGTTGGAAACGTTCCCGAGATGGCTCCAGTGATCGATTACATGAAGGGCTTCCTTGGATTCCATGAGTTCGCCGAGTTCACTGCTGAGGACGTGGGAACCACTGAGTCCGGTTTGAACTCTGTGGTTCTCGCCAACAATTCTGAGGCTGTTTTGCTCCCTCTGAATGAGCCTGTGCATGGAACCAAGAGGAGAAGCCAGATTCAAACTTACCTGGAGTACCACGGTGGCCCTGGAGTTCAGCATATCGCCCTTGCTTCTAATGATGTGTTGCGCACACTCAGAGAGATGCGCGCCAGAACCCCCATGGGAGGTTTCGAGTTCATGGCCCCACCACAGGCTAAGTACTACGAGGGCGTTAGAAGGATTGCTGGAGACGTGTTGAGCGAGGAGCAGATCAAGGAGTGCCAAGAGCTGGGTGTTCTTGTGGATAGGGATGACCAGGGCGTTCTGCTTCAAATTGCCACTAAGCCAGTGGGCGACCGCCCTACATTCTGGCTTGAGATGATTCAAAGAATCGGCTGCATGGAGAAGGATGAGGTTGGACAGGAGTACCAAAAGGGCGGATGCGGTGGCTTCGGAAAGGGTAACTTCAGCGAGTTGTTCAAGTCAATCGAGGACTACGAGAAGAGCCTCGAGGTGAAGCAGTCAGTGGTTGCCCAAAAGTCCTGA
modifications: HPPDm-2-02 Nucleotide Sequence
notes: vector DBN11783

Assays:
Format in all cases: in vivo
[1] = tested on: Arabidopsis thaliana T1 plants; assay: Mesotrione tolerance of transgenic Arabidopsis thaliana T1 plants (spray, bleached leaf area grade, damage score); set-up: Scores: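 damage score 0-100 computed as Σ(N×S)/(T×M)×100 over grades 0-3 with higher meaning more damage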; conditions: Table 12; for Classification and statistics of the grade of pesticide damage Grade 0: number of plants at grade 0; for Classification and statistics of the grade of pesticide damage Grade 1: number of plants at grade 1; for Classification and statistics of the grade of pesticide damage Grade 2: number of plants at grade 2; for Classification and statistics of the grade of pesticide damage Grade 3: number of plants at grade 3; for Scores: pesticide damage score
Summary of the method: (§1)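 Read-out: per-plant damage grade 0–3 from proportion of bleached leaf area at 7 DAT (1 <50%, 2 >50%, 3 100%). Plants were T1 transformants, glufosinate-selected, plus wild-type CK, sprayed 18 days post-sowing. Rates: topramezone 25–200, isoxaflutole 35–280, mesotrione 52.5–420 g ai/ha.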

[2] = tested on: Arabidopsis thaliana T1 plants; assay: Isoxaflutole tolerance of transgenic Arabidopsis thaliana T1 plants (spray, bleached leaf area grade, damage score); conditions: Table 11; for Classification and statistics of the grade of pesticide damage Grade 0: number of plants at grade 0; for Classification and statistics of the grade of pesticide damage Grade 1: number of plants at grade 1; for Classification and statistics of the grade of pesticide damage Grade 2: number of plants at grade 2; for Classification and statistics of the grade of pesticide damage Grade 3: number of plants at grade 3; for Scores: pesticide damage score;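 for Scores: Weighted damage index from 0 to 100 where higher means more damage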
Summary of the method: as §1

[3] = tested on: Arabidopsis thaliana T1 plants; assay: Topramezone tolerance of transgenic Arabidopsis thaliana T1 plants (spray, bleached leaf area grade, damage score); conditions: Table 10; for Classification and statistics of the grade of pesticide damage Grade 0: number of plants at grade 0; for Classification and statistics of the grade of pesticide damage Grade 1: number of plants at grade 1; for Classification and statistics of the grade of pesticide damage Grade 2: number of plants at grade 2; for Classification and statistics of the grade of pesticide damage Grade 3: number of plants at grade 3; for Scores: pesticide damage score
Summary of the method: as §1

Molecule | Resistance evaluation ([1]; mesotrione 210 g ai/ha (2×)) | Classification and statistics of the grade of pesticide damage Grade 0 ([1]; mesotrione 210 g ai/ha (2×)) | Classification and statistics of the grade of pesticide damage Grade 1 ([1]; mesotrione 210 g ai/ha (2×)) | Classification and statistics of the grade of pesticide damage Grade 2 ([1]; mesotrione 210 g ai/ha (2×)) | Classification and statistics of the grade of pesticide damage Grade 3 ([1]; mesotrione 210 g ai/ha (2×)) | Scores ([1]; mesotrione 210 g ai/ha (2×)) | Resistance evaluation ([1]; mesotrione 420 g ai/ha (4×)) | Classification and statistics of the grade of pesticide damage Grade 0 ([1]; mesotrione 420 g ai/ha (4×)) | Classification and statistics of the grade of pesticide damage Grade 1 ([1]; mesotrione 420 g ai/ha (4×)) | Classification and statistics of the grade of pesticide damage Grade 2 ([1]; mesotrione 420 g ai/ha (4×)) | Classification and statistics of the grade of pesticide damage Grade 3 ([1]; mesotrione 420 g ai/ha (4×)) | Scores ([1]; mesotrione 420 g ai/ha (4×)) | Resistance evaluation ([2]; isoxaflutole 140 g ai/ha (2×)) | Classification and statistics of the grade of pesticide damage Grade 0 ([2]; isoxaflutole 140 g ai/ha (2×)) | Classification and statistics of the grade of pesticide damage Grade 1 ([2]; isoxaflutole 140 g ai/ha (2×)) | Classification and statistics of the grade of pesticide damage Grade 2 ([2]; isoxaflutole 140 g ai/ha (2×)) | Classification and statistics of the grade of pesticide damage Grade 3 ([2]; isoxaflutole 140 g ai/ha (2×)) | Scores ([2]; isoxaflutole 140 g ai/ha (2×)) | Resistance evaluation ([2]; isoxaflutole 280 g ai/ha (4×)) | Classification and statistics of the grade of pesticide damage Grade 0 ([2]; isoxaflutole 280 g ai/ha (4×)) | also measured
B1 | Highly resistant | 16 | 0 | 0 | 0 | 0 | Highly resistant | 15 | 1 | 0 | 0 | 2 | Highly resistant | 16 | 0 | 0 | 0 | 0 | Highly resistant | 12 | Classification and statistics of the grade of pesticide damage Grade 1 ([2]; isoxaflutole 280 g ai/ha (4×)): 4; Classification and statistics of the grade of pesticide damage Grade 2 ([2]; isoxaflutole 280 g ai/ha (4×)): 0; Classification and statistics of the grade of pesticide damage Grade 3 ([2]; isoxaflutole 280 g ai/ha (4×)): 0; Scores ([2]; isoxaflutole 280 g ai/ha (4×)): 8; Resistance evaluation ([3]; topramezone 100 g ai/ha (4×)): Highly resistant; Classification and statistics of the grade of pesticide damage Grade 0 ([3]; topramezone 100 g ai/ha (4×)): 16; Classification and statistics of the grade of pesticide damage Grade 1 ([3]; topramezone 100 g ai/ha (4×)): 0; Classification and statistics of the grade of pesticide damage Grade 2 ([3]; topramezone 100 g ai/ha (4×)): 0; Classification and statistics of the grade of pesticide damage Grade 3 ([3]; topramezone 100 g ai/ha (4×)): 0; Scores ([3]; topramezone 100 g ai/ha (4×)): 0; Resistance evaluation ([3]; topramezone 200 g ai/ha (8×)): Highly resistant; Classification and statistics of the grade of pesticide damage Grade 0 ([3]; topramezone 200 g ai/ha (8×)): 16; Classification and statistics of the grade of pesticide damage Grade 1 ([3]; topramezone 200 g ai/ha (8×)): 0; Classification and statistics of the grade of pesticide damage Grade 2 ([3]; topramezone 200 g ai/ha (8×)): 0; Classification and statistics of the grade of pesticide damage Grade 3 ([3]; topramezone 200 g ai/ha (8×)): 0; Scores ([3]; topramezone 200 g ai/ha (8×)): 0
B2 | Highly resistant | 16 | 0 | 0 | 0 | 0 | Highly resistant | 14 | 2 | 0 | 0 | 4 | Highly resistant | 16 | 0 | 0 | 0 | 0 | Highly resistant | 12 | Classification and statistics of the grade of pesticide damage Grade 1 ([2]; isoxaflutole 280 g ai/ha (4×)): 3; Classification and statistics of the grade of pesticide damage Grade 2 ([2]; isoxaflutole 280 g ai/ha (4×)): 1; Classification and statistics of the grade of pesticide damage Grade 3 ([2]; isoxaflutole 280 g ai/ha (4×)): 0; Scores ([2]; isoxaflutole 280 g ai/ha (4×)): 10; Resistance evaluation ([3]; topramezone 100 g ai/ha (4×)): Highly resistant; Classification and statistics of the grade of pesticide damage Grade 0 ([3]; topramezone 100 g ai/ha (4×)): 16; Classification and statistics of the grade of pesticide damage Grade 1 ([3]; topramezone 100 g ai/ha (4×)): 0; Classification and statistics of the grade of pesticide damage Grade 2 ([3]; topramezone 100 g ai/ha (4×)): 0; Classification and statistics of the grade of pesticide damage Grade 3 ([3]; topramezone 100 g ai/ha (4×)): 0; Scores ([3]; topramezone 100 g ai/ha (4×)): 0; Resistance evaluation ([3]; topramezone 200 g ai/ha (8×)): Highly resistant; Classification and statistics of the grade of pesticide damage Grade 0 ([3]; topramezone 200 g ai/ha (8×)): 16; Classification and statistics of the grade of pesticide damage Grade 1 ([3]; topramezone 200 g ai/ha (8×)): 0; Classification and statistics of the grade of pesticide damage Grade 2 ([3]; topramezone 200 g ai/ha (8×)): 0; Classification and statistics of the grade of pesticide damage Grade 3 ([3]; topramezone 200 g ai/ha (8×)): 0; Scores ([3]; topramezone 200 g ai/ha (8×)): 0

Reference: patent publication US20250043302A1, “MUTATED HYDROXYPHENYLPYRUVATE DIOXYGENASE POLYPEPTIDE, AND CODING GENE AND USE THEREOF” (BEIJING DABEINONG BIOTECHNOLOGY CO., LTD., priority 2021, published 2025)
